From publication PMC12042621 (Structure (London, England : 1993), 2025)

B1: S1-RBD-14_(E89K) (VHH)
VHH: QVQLVESGGGLVQAGGSVRLSCAASGRSFSINPMGWFRQAPGKEREFVAAISWSGSKTVYVDSVKGRFSISRDNAKNTVYLQMNSLKPEDTAVYHCAVASRGPVYGANYVPGPHEYEYWGQGTQVTVS
B2: S1-RBD-42_(E88K) (VHH)
VHH: QVQLVESGGGLVQAGGSLRLSCVVSGSTFSNTFMDWYRQAPGKQREFVATISSGGTTNYAVFVKGRFTISRDGAKNTVYLQMNSLKPEDTAVYYCHAALPIGGDYWGQGTQVTVS

Biological target: SARS-CoV-2 spike S1 (SARS-CoV-2, wild type (Wuhan-Hu-1), UniProt P0DTC2)
Experiment: SPR

Binder | Kd [nM]
B1 | 0.3
B2 | 0.1
